The values below are quoted from earlier work in patent publication US20240156960A1 (priority 2020, published 2024).

Where two headings read alike, the source gives them in different places.

One series addresses SARS-CoV2 S; RBD (Severe acute respiratory syndrome coronavirus 2, UniProt P0DTC2). The note with it: epitope S.
Series [1] has as its system SARS-CoV1.
Series [2] concerns SARS-CoV1. The source holds these as a separate data set.
For series [3], the system named is coronavirus named in the cell (SARS-CoV2, SARS-CoV1).
The subject of series [4] is coronavirus named in the cell (SARS-CoV2, SARS-CoV1), S protein.
The subject of series [5] is SARS-CoV2, SARS-CoV1, NL63, 229E, HKU1, OC43.
For a further series, the system named is SARS-CoV2. The note with it: source Davide Robbiani et al., 2020.
The test system of series [6] is SARS-CoV1. This is another data set of the same source.

B1: C022 (antibody, listed as Homo sapiens, V domains shown)
VH: QVQLQESGPGLVKPSETLSVTCTVSGGSISSSRYYWGWIRQPPGKGLEWIGSIYYSGSTYYNPSLKSRVTISVDTSKNQFSLKLSSVTAADTAVYYCARHAAAYYDRSGYYFIEYFQHWGQGTLVTVSS
VL: DIQMTQSPSTLSASVGDSVTITCRASQSISSWLAWYQQKPGKAPKLLIYKASSLESGVPSRFSGSGSGTEFTLTISSLQPDDFATYYCQQYNNYRYTFGQGTKLEIK
On to B1, for which the figures for the “Binds to” value in the series with SARS-CoV2 S; RBD and in the series on SARS-CoV1 [1] were “SARS-CoV2” and “SARS-CoV1,”, respectively.

B2: C113 (antibody, listed as Homo sapiens, V domains shown)
VH: QVQLVESGGGVVQPGRSLRLSCAASGFTFSNFGMHWVRQAPGKGLEWVAVIWYDGSNKYYADSVKGRFTISRDNSKNTLYLQMNSLRAEDTAVYYCARGVNPDDILTGVDAFDIWGQGTMVTVSS
VL: DIQMTQSPSTLSASVGDRVTITCRASQSMSSWLAWYQQKPGNAPKLLIYKASSLESGVPSRFSGSGSGTEFTLTISSLQPDDFATYYCQQHNSSPLTFGGGTKVEIK
Turning to B2, in the series with SARS-CoV1 [2], the “Not Neutralising Vs” value is reported as “SARS-CoV1,”. For the same molecule, the “Binds to” value in the series with SARS-CoV2 S; RBD is “SARS-CoV2”.

B3: C126 (antibody, listed as Homo sapiens, V domains shown)
VH: QVQLQESGPGLVKPSETLSLSCAVSGGSIGSYFWSWIRQPPGKGLEWIGYLHYSGSTNYNPSLKSRVTISVDTSKNQFSLKLSSVTAADTAVYYCARLQWLRGAFDIWGQGTMVTVSS
VL: NFMLTQPHSVSESPGKTVTISCTGSSGSIASNYVQWYQQRPGSAPTTVINEDNQRPSGVPDRFSGSIDSSSNSASLTISGLKTEDEADYYCQSYDSSNLVFGGGTKLTVL
On to B3, for which the “Not Neutralising Vs” value in the series on SARS-CoV1 [2] is recorded as “SARS-CoV1,”. In the series with SARS-CoV2 S; RBD, the “Binds to” value is given as “SARS-CoV2”.

B4: 9A1 (antibody, listed as Homo sapiens, V domains shown)
VH: EVQLLESGGGVVQPGRSLRLSCVVSGFTFNNYGMHWVRQAPGKGLEWVAVISYEGSVKYYGDHVDGRFTISRDPFKNTLYLHMNNLRPDDTAVYYCAKVSAIFWLGQGLSPIDVWGQGTTVTVSS
VL: DIVMTQSPATLSASPGERVTLSCRASQNIRNNLAWYQQKPGQAPRLLIHGASTRAAGAPARFSGSGSDTQFTLTVSSLQSEDFAVYYCHQYSKWPVTFGGGTKVDIK
In the case of B4, in series [3], the “Not Neutralising Vs” value is “SARS-CoV2”. Moreover, the “Binds to” value in series [4] was “SARS-CoV2”.

B5: mBG67 (antibody, listed as Mus musculus, V domains shown)
VH: EVQLVESGGGLVQPGGSLKLSCAASGFTFSNYGMSWVRQTPDKRLELVATINRNGGSTYYLDSVKVRFTISRDNAKSTLFLQLSSLKSDDTAMYYCARIYDFDEDYFDVWGAGTTVTVSS
VL: QIVLTQSPAIMSASLGERVTMTCTASSSVSSSYLHWYQQKPGSSPKLWIYSTSNLASGVPARFSGSGSGTSYSLTISSMEAEDAATYYCLQYHRSPWTFGGGTKLEIK
Turning to B5, the “Binds to” value in series [5] is “NL63”.

B6: C130 (antibody, listed as Homo sapiens, V domains shown)
VH: QVQLVQSGAEVKKPGASVKVSCKASGYTFTNYYMHWVRQAPGQGLEWMGIINPSGGSTGYAQKFQGRVTMTRDTSTSTVYMELSSLRSEDTAVYYCARSRPTPDWYFDLWGRGTLVTVSS
VL: SYELTQPPSVSVAPGKTARITCGGNNIGSKSVHWYQQKPGQAPVLVIYYDSDRPSGIPERFSGSNSGNTATLTISRVEAGDEADYYCQVWDSSSDHPGVVFGGGTKLTVL
Take B6: the “Binds to” value in the series on SARS-CoV2 was “SARS-CoV2”. Moreover, the “Not Neutralising Vs” value with SARS-CoV1 [6] was “SARS-CoV1,”.

B7: C128 (antibody, listed as Homo sapiens, V domains shown)
VH: EVQLLESGGGLVQPGGSLRLSCAASGFTFSTYAMSWVRQAPGKGLEWVSTITGSGRDTYYADSVKGRFTISRDNSKNTLFLQLNSLRAEDAAVYSCANHPLASGDDYYHYYMDVWGKGTTVTVSS
VL: EIVLTQSPGTLSLSPGERATLSCRASQSVNSRQLAWYQQKPGQAPRLLIYGASSRATGIPERFSGSGSGTDFTLTISRLESEDFAVYHCQQYGSSRALTFGGGTKVEIK
With B7, the “Binds to” value with SARS-CoV2 is given as “SARS-CoV2”. Also, the “Not Neutralising Vs” value in the series with SARS-CoV1 [6] is “SARS-CoV1”.

B8: C118 (antibody, listed as Homo sapiens, V domains shown)
VH: QVQLVESGGGVVQPGRSLRLSCAASGFTFSNYAMHWVRQAPGKGLEWVAVISYDGSNKYYADSVKGRFTISRDNSKNTLYLQMNSLRAEDTAIYYCASGYTGYDYFVRGDYYGLDVWGQGTTVTVSS
VL: QPVLTQSPSASASLGASVKLTCTLSSGHSSYAIAWHQQQPEKGPRYLMKLNTDGSHSKGDGIPDRFSGSSSGAERYLTISSLQSEDEADYYCQTWGTGILVFGGGTKLTVL
As to B8, the “Binds to” value with SARS-CoV2 S; RBD is recorded as “SARS-CoV2”; with SARS-CoV1 [1], “SARS-CoV1,”.

B9: C116 (antibody, listed as Homo sapiens, V domains shown)
VH: QVQLVESGGGVVQPGRSLRLSCAASGFTYSTYAMHWVRQAPGKGLEWVAFISYDGSNKYYADSVKGRFTISRDNSKNTLYLQMNSLRAEDTAVYYCARDFYHNWFDPWGQGTLVTVSS
VL: NFMLTQPHSVSESPGKTVTISCTGSSGSIASNYVQWYQQRPGSAPTTVIYEDNQRPSGVPDRFSGSIDRSSNSASLTISGLKTEDEADYYCQSYDSGNHWVVFGGGTRLTVL
On to B9, for which the “Not Neutralising Vs” value with SARS-CoV1 [2] was “SARS-CoV1,”. Further, in the series with SARS-CoV2 S; RBD, the “Binds to” value is listed as “SARS-CoV2”.

B10: C114 (antibody, listed as Homo sapiens, V domains shown)
VH: QVQLVESGGGLIQPGGSLKLSCVVSGFTVSKNYISWVRQAPGKGLEWVSVIFAGGSTFYADSVKGRFAISRDNSNNTLFLQMNSLRVEDTAIYYCARGDGELFFDQWGQGTLVTVSS
VL: QSVLTQPPSVSGAPGQRVTISCTGTSSNIGAGYDVHWYQQLPGRAPKVLISGNNIRPSEVPDRFSGSRSGTSASLAITSLQPEDEAQYYCQSYDSSLYAVFGGGTKLTVL
In the case of B10, the “Not Neutralising Vs” value with SARS-CoV1 [2] is listed as “SARS-CoV1,”. Besides, the “Binds to” value in the series with SARS-CoV2 S; RBD is “SARS-CoV2”.
